Reference: US11052132B2, “Methods and compositions for treating cystic fibrosis” (PHASEBIO PHARMACEUTICALS, INC., priority 2014, dated 2021)

Assays:
[1] = target: T1, F508del-CFTR (Homo sapiens, UniProt P13569, DEL508-508); experiment: Iodide efflux assay on JME/CF15 cells (rescue of F508del-CFTR function); assay type: cell-based; conditions: for effect on iodide efflux, alone / plateau concentration (iodide efflux rate) / EC50: JME/CF15 cells at 37° C.; for effect on iodide efflux, alone: acute treatment with 1 μM VX770 alone (FIG. 6A); for effect on iodide efflux in combination with VX-770: 350 nM PB1046 18 hours or 140 nM PB1120 24 hours, plus acute 1 μM VX-770 (FIG. 6B, C); for correct and/or potentiate the activity of F508del-CFTR (iodide efflux) compared with VX-809 and VX-661: 37° C., 900 nM VIP 24 h, 1 μM PB1120 24 h, 1.2 μM PB1046 18 h, versus 1 μM VX809 24 h, 3 μM VX661 24 h (FIG. 5); for plateau concentration (iodide efflux rate) / EC50: pre-incubated 2 hours at 30-3,500 nM, then cAMP activator cocktail, n=3-5; for EC50: read-out: EC50 (iodide efflux rate)
T1 construct: A human nasal epithelial cell line JME/CF15, derived from a Cystic Fibrosis patient homozygous for the F508del mutation; endogenous in cells; host or cells: JME/CF15 human nasal epithelial cell line (CF patient, F508del homozygous)
T1 sequence (P13569 with tags, fused parts or gaps DEL508-508): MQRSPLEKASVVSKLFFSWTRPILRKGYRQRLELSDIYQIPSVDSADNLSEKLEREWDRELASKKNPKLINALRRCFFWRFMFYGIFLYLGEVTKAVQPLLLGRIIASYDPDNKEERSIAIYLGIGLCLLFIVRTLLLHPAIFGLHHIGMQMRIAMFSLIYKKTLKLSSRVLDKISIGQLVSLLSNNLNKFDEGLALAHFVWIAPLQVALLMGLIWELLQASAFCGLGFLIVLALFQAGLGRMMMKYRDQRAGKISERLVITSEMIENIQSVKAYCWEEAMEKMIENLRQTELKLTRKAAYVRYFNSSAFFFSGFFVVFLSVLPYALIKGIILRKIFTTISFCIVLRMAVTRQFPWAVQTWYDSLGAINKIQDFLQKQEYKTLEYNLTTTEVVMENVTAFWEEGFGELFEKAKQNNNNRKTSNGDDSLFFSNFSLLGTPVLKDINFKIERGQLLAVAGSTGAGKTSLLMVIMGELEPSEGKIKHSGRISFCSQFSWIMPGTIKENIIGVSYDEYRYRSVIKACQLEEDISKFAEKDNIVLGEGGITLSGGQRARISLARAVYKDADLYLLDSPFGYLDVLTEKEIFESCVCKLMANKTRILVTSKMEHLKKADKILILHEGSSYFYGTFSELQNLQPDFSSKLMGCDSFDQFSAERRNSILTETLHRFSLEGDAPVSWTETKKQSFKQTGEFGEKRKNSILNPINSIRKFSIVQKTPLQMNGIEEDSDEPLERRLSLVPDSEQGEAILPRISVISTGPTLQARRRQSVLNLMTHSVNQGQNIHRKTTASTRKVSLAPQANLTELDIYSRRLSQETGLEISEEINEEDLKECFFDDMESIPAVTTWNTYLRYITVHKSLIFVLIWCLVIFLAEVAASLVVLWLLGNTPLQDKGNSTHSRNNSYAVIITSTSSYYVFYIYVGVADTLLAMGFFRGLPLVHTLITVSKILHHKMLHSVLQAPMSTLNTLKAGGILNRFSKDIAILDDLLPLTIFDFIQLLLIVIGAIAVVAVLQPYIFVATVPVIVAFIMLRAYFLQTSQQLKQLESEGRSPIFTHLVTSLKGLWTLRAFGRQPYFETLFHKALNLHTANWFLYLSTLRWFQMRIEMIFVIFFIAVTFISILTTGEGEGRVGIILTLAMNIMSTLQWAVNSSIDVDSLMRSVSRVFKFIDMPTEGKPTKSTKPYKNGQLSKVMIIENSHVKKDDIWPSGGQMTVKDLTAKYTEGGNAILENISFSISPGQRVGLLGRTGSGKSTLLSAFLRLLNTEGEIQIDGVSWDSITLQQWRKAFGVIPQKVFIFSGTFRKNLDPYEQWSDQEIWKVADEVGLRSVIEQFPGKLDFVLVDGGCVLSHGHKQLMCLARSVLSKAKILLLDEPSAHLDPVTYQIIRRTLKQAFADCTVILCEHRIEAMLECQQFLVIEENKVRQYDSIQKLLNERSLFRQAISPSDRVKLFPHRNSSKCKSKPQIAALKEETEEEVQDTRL
Protocol: A human nasal epithelial cell line JME/CF15, derived from a Cystic Fibrosis patient homozygous for the F508del mutation (Jefferson (1990)) was used to evaluate the effect of VIP compounds on CFTR protein function. Cells were cultured at 37° C. with at 5% CO2— 95% humidity in DMEM-F12 with 10% FBS and supplemented with transferrin (5 μg/ml), triiodothyronine (2 nM), insulin (5 μg/ml), hydrocortisone (1.1 μM), EGF (1.64 nM), epinephrine (5.5 μM), and adenine (18 μM). Cells were maintained at 37° C. and incubated with […] VIP, 1.2 μM PB1046 (SEQ ID NO: 15), or 1 μM PB1120 (SEQ ID NO: 20) for 18 or 24 hours before the assaying for iodide efflux. For comparison, cells were incubated with the CFTR correctors VX-809 (lumacaftor) or VX-661.
To evaluate the effect of test compounds on CFTR protein function, the activity of the CFTR chloride channel was determined by studying the efflux of iodide ions using an iodide sensitive electrode. Cells were incubated with NaI loading buffer (136 mM NaI, 3 mM KNO3, 2 mM Ca(NO3), 11 mM glucose, 20 mM HEPES, pH 7.4) for 1 hour at room temperature. Extracellular NaI solution was then removed and replaced with efflux buffer in which NaI was replaced with NaNO3. Samples were taken and replaced at 1 minute intervals. The first 3 samples taken before addition of the CFTR activation cocktail (time 0-2 min) were used to establish a stable baseline of ion efflux. CFTR activation cocktail (150 μM cpt-cAMP+1 mM IBMX+10 μM forskolin) was included in the efflux buffer from time 3 minutes. NaI concentration was then measured using an iodide sensitive electrode moved over each sample by a computerised autosampler and the NaI efflux rate constant k (min^−1) was calculated. Iodide efflux peaks (maximum efflux rate during stimulation—basal level) were compared.
Iodide efflux rates were measured on JME/CF15 cells maintained at 37° C. and pre-incubated with VIP, PB1046, or PB1120 at 30-3,500 nM for 2 hours. […] Rescued F508del-CFTR was stimulated by a cAMP activator cocktail added to the efflux buffer. […] CFTRinh172 (20 μM) was included in the incubation, confirming that the iodide efflux was mediated by CFTR.
To study the effects of administration of PB1120 or PB1046 together with CFTR potentiators or CFTR correctors, iodide efflux assays were performed as described in Example 1.

[2] = system: F508del-CFTR; experiment: Immunoblotting / immunostaining of F508del-CFTR maturation and membrane expression in JME/CF15 cells; assay type: cell-based, human; conditions: JME/CF15 cells at 37° C., incubated with compound for 24 hours (FIG. 4)
Protocol: JME/CF15 cells were immunostained for CFTR (A).
Immunoblotting was performed to visualize the […] of the F508del-CFTR in the epithelial cells treated with VIP, PB1120, or PB1046.

Molecule | iodide efflux activity rescued by VIP therapeutics when the CFTR inhibitor is included ([1]; CFTRinh172 20 μM, 30 minutes before and during the efflux experiments (FIG. 3)) | effect on iodide efflux, alone [1] | effect on iodide efflux, alone ([1]; listed as VX770) | effect on iodide efflux in combination with VX-770 [1] | correct and/or potentiate the activity of F508del-CFTR (iodide efflux) compared with VX-809 and VX-661 [1] | plateau concentration (iodide efflux rate) [1] | EC50 [1] | F508del-CFTR maturation and membrane expression [2] | effect on iodide efflux in combination with VX-809 ([1]; 1 μM PB1120 and 1 μM VX-809 for 24 hours (FIG. 7))
O=C(O)c1ccc(/C=C2\SC(=S)N(c3cccc(C(F)(F)F)c3)C2=O)cc1 [CFTRinh172, reference compound] | significantly reduced | – | – | – | – | – | – | – | –
CC(C)(C)c1cc(C(C)(C)C)c(NC(=O)c2c[nH]c3ccccc3c2=O)cc1O [VX-770, ivacaftor, reference compound] | – | no effect | did not produce any significant stimulation | – | – | – | – | – | –
PB1046: long lasting, stable VIP therapeutic which includes ELP sequences; VIP-ELP fusion, SEQ ID NO: 15 (protein, M-VIP ELP1-120) MHSDAVFTDNYTRLRKQMAVKKYLNSILNVPGVGVPGVGVPGGGVPGAGVPGVGVPGVGVPGVGVPGGGVPGAGVPGGGVPGVGVPGVGVPGGGVPGAGVPGVGVPGVGVPGVGVPGGGVPGAGVPGGGVPGVGVPGVGVPGGGVPGAGVPGVGVPGVGVPGVGVPGGGVPGAGVPGGGVPGVGVPGVGVPGGGVPGAGVPGVGVPGVGVPGVGVPGGGVPGAGVPGGGVPGVGVPGVGVPGGGVPGAGVPGVGVPGVGVPGVGVPGGGVPGAGVPGGGVPGVGVPGVGVPGGGVPGAGVPGVGVPGVGVPGVGVPGGGVPGAGVPGGGVPGVGVPGVGVPGGGVPGAGVPGVGVPGVGVPGVGVPGGGVPGAGVPGGGVPGVGVPGVGVPGGGVPGAGVPGVGVPGVGVPGVGVPGGGVPGAGVPGGGVPGVGVPGVGVPGGGVPGAGVPGVGVPGVGVPGVGVPGGGVPGAGVPGGGVPGVGVPGVGVPGGGVPGAGVPGVGVPGVGVPGVGVPGGGVPGAGVPGGGVPGVGVPGVGVPGGGVPGAGVPGVGVPGVGVPGVGVPGGGVPGAGVPGGGVPGVGVPGVGVPGGGVPGAGVPGVGVPGVGVPGVGVPGGGVPGAGVPGGGVPGWP | – | – | – | synergistic effect | equivalent or greater extent than VX-809 and VX-661 | 1200 nM | 355 nM | corrected | –
PB1120: long lasting, stable VIP therapeutic which includes ELP sequences; VIP-ELP fusion, SEQ ID NO: 20 (protein, VIP ELP1-120) HSDAVFTDNYTRLRKQMAVKKYLNSILNVPGVGVPGVGVPGGGVPGAGVPGVGVPGVGVPGVGVPGGGVPGAGVPGGGVPGVGVPGVGVPGGGVPGAGVPGVGVPGVGVPGVGVPGGGVPGAGVPGGGVPGVGVPGVGVPGGGVPGAGVPGVGVPGVGVPGVGVPGGGVPGAGVPGGGVPGVGVPGVGVPGGGVPGAGVPGVGVPGVGVPGVGVPGGGVPGAGVPGGGVPGVGVPGVGVPGGGVPGAGVPGVGVPGVGVPGVGVPGGGVPGAGVPGGGVPGVGVPGVGVPGGGVPGAGVPGVGVPGVGVPGVGVPGGGVPGAGVPGGGVPGVGVPGVGVPGGGVPGAGVPGVGVPGVGVPGVGVPGGGVPGAGVPGGGVPGVGVPGVGVPGGGVPGAGVPGVGVPGVGVPGVGVPGGGVPGAGVPGGGVPGVGVPGVGVPGGGVPGAGVPGVGVPGVGVPGVGVPGGGVPGAGVPGGGVPGVGVPGVGVPGGGVPGAGVPGVGVPGVGVPGVGVPGGGVPGAGVPGGGVPGVGVPGVGVPGGGVPGAGVPGVGVPGVGVPGVGVPGGGVPGAGVPGGGVPGVGVPGVGVPGGGVPGAGVPGVGVPGVGVPGVGVPGGGVPGAGVPGGGVPGWP | – | – | – | synergistic effect | equivalent or greater extent than VX-809 and VX-661 | 1000 nM | 140 nM | corrected | synergism
